Measurements: patent US20250290928A1, “METHOD, KIT AND DEVICE FOR DETECTING EXTRACELLULAR VESICLES” (priority 2022, published 2025)
No end group written: not given here. *: point of attachment. 5FAM = O=C1OC2(c3ccc(O)cc3Oc3cc(O)ccc32)c2ccc(C(=O)*)cc21; TQ2 = quencher; TQ3 = quencher

Assays:
Assay type in all cases: biochemical
[1] = biological target: T1, MMP14 in the MDA-MB-231-derived extracellular vesicles (Homo sapiens, UniProt P50281); assay: Digital detection through MMP14 activity of MDA-MB-231-derived extracellular vesicles captured on anti-CD9/CD63/CD81 antibody-immobilized particles; conditions: 24 hours of reaction
T1 construct: in terms of intact MMP14 with a molecular weight of 70 kDa
Procedure: (§1) The concentration of the solution is 10 μg/mL.
For detection of MMP14 activity, 1 mM Custom #2 was diluted with the buffer (4) to prepare a MMP14 detection solution containing 10 μM Custom #2.
The number of the particles was increased 4-fold, and a reaction was allowed to proceed. However, the number and concentration of the particles used to fill the wells are finally the same as those in other Examples.
The concentration of the solution is 10 μg/mL. The solution was subjected to 3-fold serial dilution to prepare standard samples with seven concentrations.
For detection of MMP14 activity, 1 mM Custom #2 and a 100 µM resorufin β-D-galactopyranoside solution were diluted with the buffer (4) to prepare a MMP14 and CD9/CD63/CD81 cocktail detection solution (1) containing 10 μM Custom #2 and 5 μM resorufin β-D-galactopyranoside. In addition, the solution was diluted 2-fold with the buffer (4) to prepare a detection solution (2). Nonfluorescent resorufin β-D-galactopyranoside is degraded by β-galactosidase to produce fluorescent resorufin. In this case, the maximum wavelengths of excitation and fluorescence of resorufin are 570 nm and 585 nm, respectively.
In addition, an antibody-immobilized particle solution was prepared and stored at 4° C. until use, in the same manner as in Example 28 except that Magnosphere MS300/Carboxyl (manufactured by JSR Corporation) (hereinafter abbreviated as “MS300C”) was used as magnetic particles.
For detection of MMP14 activity, 1 mM Custom #2 was diluted with the buffer (4) to prepare a MMP14 detection solution containing 5 μM Custom #2. In addition, 1 mM Custom #2T was diluted with the buffer (4) to prepare a MMP14 detection solution containing 2.5 μM Custom #2T.
An antibody-immobilized particle solution was prepared and stored at 4° C. until use, in the same manner as in Example 28 except that: MS300C was used as magnetic particles; and blocking treatment was performed at 4° C. or room temperature through use of Blockmaster CE210 or CE510 (manufactured by Medical & Biological Laboratories Co., Ltd.) instead of Bead Blocking Buffer (manufactured by Quanterix Corporation).
For detection of MMP14 activity, 1 mM Custom #2 and 1 mM Custom #2T were diluted with the buffer (4) to prepare a MMP14 detection solution containing 5 μM Custom #2 and 2.5 μM Custom #2T serving as the reporter molecules in the same system. […]

[2] = biological target: T1, MMP14 in the MDA-MB-231-derived extracellular vesicles; assay: Digital detection through MMP14 activity of MDA-MB-231-derived extracellular vesicles captured on Tim4-immobilized magnetic particles; conditions: Table 56, MB231 Present, 24 hours at 23° C.
[3] = biological target: T2, MMP14 in the A549-derived extracellular vesicles (Homo sapiens, UniProt P50281); assay: Evaluation of MMP14 activity of A549-derived extracellular vesicles with 96-well plate; conditions: Example 21, buffer (4), reporter 5 μM, 37° C.
T2 construct: host or cells: A549 (purified exosomes)
Procedure: The MMP14 activity was evaluated with a 96-well plate (manufactured by Thermo Fisher Scientific Inc., model number: 137101). A fluorescence intensity was measured with a fluorescence plate reader (Synergy MX, manufactured by BioTek Instruments, Inc.) at […] every 5 min for 1 hour. For measurement wavelengths, an excitation wavelength of 485±20 nm and a fluorescence wavelength of 528±20 nm were used.
With regard to the COLO201-derived extracellular vesicles, the concentration of the solution was set to x1/10, and 3-fold serial dilution was performed to prepare standard samples with three concentrations.
50 μL of the MMP14 detection solution was added to 50 μL of each of the samples, a reaction was performed at 37° C., and MMP14 activity was evaluated.
(§2) The concentration of the solution is 20 μg/mL. […] The concentration of the solution was set to x1, and 10-fold serial dilution was performed to prepare standard samples with five concentrations.
as §1
Evaluation was performed in the same manner as in Example 1 except that the reaction temperature was set to 23° C. ΔRFU was calculated by subtracting the measured value of the sample for BG measurement from the measured value of each of the samples.

[4] = biological target: T2, MMP14 in the A549-derived extracellular vesicles; assay: Digital detection of A549-derived extracellular vesicles through MMP14 activity in wells (Simoa Discs); conditions: for Expected value λ / Number of positives / Positive ratio: Example 21, 37° C.
Procedure: as §2, §1

[5] = 5 h, BG, EV 0 (free of extracellular vesicles, pseudopositive)
[6] = 5 h, ΔBG Absent, EV 0.0001 a.u.
[7] = 5 h, ΔBG Absent, EV 1 a.u. (x1=10 μg/mL)
[8] = 5 h, ΔBG Present (positives at EV 0 subtracted), EV 1 a.u.
[9] = 5 h, ΔBG Present, EV 0.0001 a.u.
[10] = 5 h, ΔBG Present, EV 0.001 a.u.

Q: Which results are given for “TAMRA-GGPLGLAGGK(TQ3) ({TAMRA}-GGPLGLAGGK(TQ3)) [Custom #2T]”?
A: Extracellular vesicle concentration ([1]; Particle MS300C, MB231 Absent): 0.01 ×10^5/μg of protein; Particle Expected value λ ([1]; Particle MS300C, MB231 Absent): 0.002; Extracellular vesicle concentration ([1]; Particle MS300C, MB231 Present): 1.4687 ×10^5/μg of protein; Particle Expected value λ ([1]; Particle MS300C, MB231 Present): 0.2937; Extracellular vesicle concentration ([1]; Particle Simoa, MB231 Absent): 0.0098 ×10^5/μg of protein; Particle Expected value λ ([1]; Particle Simoa, MB231 Absent): 0.00196; Extracellular vesicle concentration ([1]; Particle Simoa, MB231 Present): 0.3874 ×10^5/μg of protein; Particle Expected value λ ([1]; Particle Simoa, MB231 Present): 0.07748; Particle Number of positives ([2]; Particle MS300C): 1,460; Particle Number of positives ([2]; Particle Simoa): 359

Q: For “[5-FAM]GRIGFLRTAK(TQ2)[OH] (5FAM-GRIGFLRTAK(TQ2)-OH) [Custom #1]”, which “extracellular vesicle concentration at which MMP14 activity was able to be detected with a 96-well plate” value [3] is on record?
A: Its value is no less than 10 µg/mL.

Q: And the “Expected value λ” value [4, 5]?
A: The value was 0.000656.

Q: And the Number of positives [4, 5]?
A: The Number of positives was 38.

Q: What about the Positive ratio [4, 5] of the same substance?
A: Its Positive ratio is 0.000656.

Q: And the “Expected value λ” value [4, 6]?
A: The value was 0.000725.

Q: What about the Number of positives [4, 6] of the same substance?
A: The Number of positives was 42.

Q: What about the Positive ratio [4, 6] of the same substance?
A: The Positive ratio was 0.000724.

Q: What about the “Expected value λ” value ([4]; 5 h, ΔBG Absent, EV 0.001 a.u.) of the same substance?
A: Its value is 0.000985.

Q: What about the Number of positives ([4]; 5 h, ΔBG Absent, EV 0.001 a.u.) of the same substance?
A: The Number of positives was 57.

Q: And the Positive ratio ([4]; 5 h, ΔBG Absent, EV 0.001 a.u.)?
A: The Positive ratio was 0.000984.

Q: And the “Expected value λ” value ([4]; 5 h, ΔBG Absent, EV 0.01 a.u.)?
A: The value was 0.00207.

Q: What about the Number of positives ([4]; 5 h, ΔBG Absent, EV 0.01 a.u.) of the same substance?
A: Its Number of positives is 119.

Q: And the Positive ratio ([4]; 5 h, ΔBG Absent, EV 0.01 a.u.)?
A: The Positive ratio was 0.00206.

Q: And the “Expected value λ” value ([4]; 5 h, ΔBG Absent, EV 0.1 a.u.)?
A: The value was 0.0137.

Q: And the Number of positives ([4]; 5 h, ΔBG Absent, EV 0.1 a.u.)?
A: Its Number of positives is 789.

Q: And the Positive ratio ([4]; 5 h, ΔBG Absent, EV 0.1 a.u.)?
A: The Positive ratio was 0.0136.

Q: And the “Expected value λ” value [4, 7]?
A: The value was 0.149.

Q: And the Number of positives [4, 7]?
A: Its Number of positives is 8,036.

Q: And the Positive ratio [4, 7]?
A: The Positive ratio was 0.139.

Q: What about the “Expected value λ” value [4, 8] of the same substance?
A: Its value is 0.148.

Q: What about the Number of positives [4, 8] of the same substance?
A: Its Number of positives is 7,998.

Q: What about the Positive ratio [4, 8] of the same substance?
A: Its Positive ratio is 0.138.

Q: What about the “Expected value λ” value [4, 9] of the same substance?
A: Its value is 0.000069.

Q: What about the Number of positives [4, 9] of the same substance?
A: The Number of positives was 4.

Q: What about the Positive ratio [4, 9] of the same substance?
A: Its Positive ratio is 0.000069.

Q: What about the “Expected value λ” value [4, 10] of the same substance?
A: Its value is 0.000328.

Q: What about the Number of positives [4, 10] of the same substance?
A: Its Number of positives is 19.

Q: And the Positive ratio [4, 10]?
A: The Positive ratio was 0.000328.

Q: What about the “Expected value λ” value ([4]; 5 h, ΔBG Present, EV 0.01 a.u.) of the same substance?
A: Its value is 0.00141.

Q: What about the Number of positives ([4]; 5 h, ΔBG Present, EV 0.01 a.u.) of the same substance?
A: The Number of positives was 81.

Q: And the Positive ratio ([4]; 5 h, ΔBG Present, EV 0.01 a.u.)?
A: Its Positive ratio is 0.0014.

Q: And the “Expected value λ” value ([4]; 5 h, ΔBG Present, EV 0.1 a.u.)?
A: Its value is 0.013.

Q: And the Number of positives ([4]; 5 h, ΔBG Present, EV 0.1 a.u.)?
A: Its Number of positives is 751.

Q: What about the Positive ratio ([4]; 5 h, ΔBG Present, EV 0.1 a.u.) of the same substance?
A: The Positive ratio was 0.0129.

Q: What about the “λ at x1 in an approximation with BG correction” value ([4]; Example 21, 5 h) of the same substance?
A: The value was 0.120.

Q: And the “λ at x1 in an approximation without BG correction” value ([4]; Example 21, 5 h)?
A: The value was 0.102.

Q: And the “extracellular vesicle concentration at which MMP14 activity was able to be detected in the microcompartment” value ([4]; Example 21, Simoa Discs, buffer (4), reporter 5 μM, 37° C., 5 h)?
A: The value was no less than 100 ng/mL.

Q: What about the Extracellular vesicle concentration ([4]; Example 21, with BG correction) of the same substance?
A: The Extracellular vesicle concentration was 2.4e+09 mL⁻¹.

Q: And the “extracellular vesicles in which MMP14 activity can be detected, contained in 1 μL of the extracellular vesicles (50 μg of protein in 50 μL of PBS)” value ([4]; Example 21, with BG correction)?
A: Its value is 2.4×10^8.

Q: And the Extracellular vesicle concentration ([4]; Example 21, without BG correction)?
A: The Extracellular vesicle concentration was 2.0×10^8 /μg of protein.

Q: And the Extracellular vesicle concentration ([4]; Example 21, without BG correction, reaction solution 10 μg of protein/mL, 50 fL)?
A: The Extracellular vesicle concentration was 2e+09 mL⁻¹.
